Data taken from the RNAGym collection of RNA variant scans (doi:10.1073/pnas.2313332121).

B1: TPR t1 (parent)
chain: GACCAAUCUGCCCUCAGAGCUCGAGAACAUCUUCGGAUGCAGAGGAGGCAGGCUUCGGUGGCGCGAUAGCGCCAACGUCCUCAACCUCCAAUGCAUCCCACCACAUGAUGAUGCCUGAAGAGCCUUGGUUUUUUG

Variants of: B1
Test: polymerase ribozyme fitness, log enrichment relative to wild type (log ratio); higher = more active; in vitro selection for triplet polymerase activity
Procedure, shortened: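 A heterodimeric triplet polymerase ribozyme had each of its subunits mutagenized by PCR into a library, which was transcribed. One round of in vitro selection, done in triplicate, annealed each library with a biotinylated primer, its partner subunit and triplets, then incubated it frozen at −7 °C before gel excision of extended constructs, streptavidin-bead capture and RT-PCR. Fitness is the logarithm of genotype enrichment relative to wild-type enrichment, based on Illumina sequencing of inputs and outputs and inverse-variance-weighted replicate averages. A base-2 logarithm is used, and genotypes were kept only with ≥10 input reads and ≥1 read per output.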

Row | Variant | polymerase ribozyme fitness (log ratio)
1 | C4U G19A G71A G120C | -3.53
2 | A5G A95U A121C G128A U130C | -0.519
3 | A5G C12A C73A | -0.594
4 | A5U U81A | -1.15
5 | A5G G47U A50C C62U A105C | -6.17
6 | C4U G42C G60U C88G C99G A111U U134A | -5.4
7 | A5C C8U C34A A75U C79U C101G | -3.24
8 | A5U G10A C86U C102U G113A G128C | -5.52
9 | A5U C62A | -0.777
10 | C4U C97G | -3.97
11 | C4G G10A | -1.4
12 | A5G C49U C73U | -0.864
13 | A5C A118G | -0.499
14 | A5U A41U G120C | -1.47
15 | A5U A43G G44A G52C G63C C124U G128U | -4.22
16 | C4U | -0.513
17 | C4U A37U C40U A83G | -2.17
18 | C4U C11G C49U G51A C80U C94G | -2.25
19 | A5U G47A G113U | -3.72
20 | A5U C40U G48A | -2.13
21 | A5G C64G G69A A83U | -4.33
22 | C4U C56G C70A | -3
23 | C4G G110A | -2.16
24 | C4U U14A G69A C101U | -5.32

Row | Variant | polymerase ribozyme fitness (log ratio)
25 | C4U U54A C72G C82A C114A | -3.49
26 | A5U G52U U54A | -1.51
27 | C4G G45A C114U | -4.45
28 | C4G U7G U55A C99U U112G U132C | -4.94
29 | C4G C12A C15A C94A C99U G110C | -6.59
30 | A5G C79A C115G U125G U131A | -1.22
31 | A5U U9G C62A | -0.961
32 | C4G G71A | -1.72
33 | C4G C8G U9G U21G U96G A111U | -3.56
34 | A5U A68G C82G | -3.79
35 | C4G C13A C89A U130C | -3.33
36 | C4G C20G G61U G117A | -4.76
37 | C4U U9G U54C C76A | -0.732
38 | C4G U9A C56G U112A G117A G120C | -6.24
39 | A5U A66U A75G C76A C94A G120A U130G | -5.41
40 | C4U U9C C34G A100U | -4.68
41 | A5G C15U G48U C104U C124A | -0.12
42 | A5U A18G C20G C82U C94U A111C U112G A121C | -6.26
43 | C4U U38G U112A | -0.207
44 | A5G G71A | -0.188
45 | C4U A121U | 2.23
46 | A5C A84G | -1.64
47 | A5C C56A | -0.668
48 | C4U C56A | -0.607

Row | Variant | polymerase ribozyme fitness (log ratio)
49 | A5G G57A G63A | -2.06
50 | A5U C13U A16G G69C U92G C123A U132A | -2.65
51 | A5C G17C G44A A83U G120A U131A | -4.99
52 | A5G G60A G120U | 0.955
53 | A5U G61U C124A | 1.19
54 | A5U A37G C72U | -0.735
55 | C4U C73U | -0.492
56 | A5U A18U C94G A105G C123G | -6.51
57 | A5G G45A C104A | -2.92
58 | A5U C31U U112A | -3.97
59 | C4G U7G C13U G113A | -1.14
60 | A5U G63C G117A | -3.54
61 | A5U A50U A105U A119G | -1.86
62 | A6C A27G A121C | -0.0909
63 | A5C C56U G69U G120A G135C | -1.06
64 | C4G G63U G120U G122U | -1.51
65 | C4U G52C G63A G110A | -4.4
66 | A5C A37U G127U | -2.11
67 | A5U G47U A121U C124U | 0.495
68 | A5G C15U G93U G117U | -1.5
69 | A6C A18U | -2.13
70 | C4U C8G C34G A46U U59G C62U C102U G113U A121C U131G | -6.55
71 | C4U C34A G71C A83G C98U U112A | -5.16
72 | A5U C70A | -2.56

Row | Variant | polymerase ribozyme fitness (log ratio)
73 | A5U C70G | -2.83
74 | A5G U9C C40U C56U U59A | -0.739
75 | C4U C8G U33G C85G C94U | -6
76 | C4U G10U G51U C79G | -3.58
77 | A5U C11A C102A | -4.33
78 | A5C U9C C86U A100U G135U | -1.74
79 | A5U G36U | -1.3
80 | C4U C15U A43U A46U | -3.46
81 | A5U U112A A118U U125C | 0.369
82 | C4U C98U G113U | -3.82
83 | A5G A6G C11U C28U G120U | -2.3
84 | C4G C8A C80U C115A G120A U125A | -2.71
85 | C4G C22U G23A A66U A83G C97G C99U U106A G113U C124A | -7.47
86 | A5C A37C G60C C79U C123A | -0.023
87 | A5G A43G C56U C80U | -2.61
88 | A5C G17A C82A | -5.14
89 | A5C C12G U14A G63U | -2.95
90 | C4G C73U | -1.69
91 | A5G C8U U54A A111U | -2.21
92 | C4G A90G C104U | -0.701
93 | A5U C8G C15A A41U G48A C49U G113A U129C | -5.44
94 | A5U G63U G110A | -2.89
95 | C4U G44A C73U A75U C94A | -2.78
96 | A5C G61A | -0.269

Row | Variant | polymerase ribozyme fitness (log ratio)
97 | A5C C53A G71U C98U U112A G120U | -6.47
98 | A5U G44C G60U U96G G127A U131G | -3.9
99 | C4U G60C A83U A84C C86A | -2.24
100 | C4G U9C C15A U55C C73A C79G | -2.6
101 | C4G C115A | -3.11
102 | C4U G58C C97G | -4.76
103 | A5U C11G A29U | -3.66
104 | A5C C11G G44A C56A U112A | -0.571
105 | A5C G17A | -4.76
106 | A5U U14G U59A C62U | -2.15
107 | A5U C53U C64U U106A | -0.639
108 | A5U C12U U21G A27C A46G A90G G120U | -2.99
109 | C4G U78G C80U | -1.48
110 | C4U G42A G45U G47A | -4.19
111 | C4U C8A C28U U59A | -2.29
112 | C4G C72G | -1.74
113 | C4G U9A C62G C89A C115A G117C | -5.76
114 | C4U A41C C56A G63A | -4.61
115 | C4U A16G C49U G69A G71C U78G C82U A84U C115A | -6.51
116 | A5G C8U C72G G110A | -1.25
117 | C4U A43U U96A | -3.02
118 | A5U C53U | -0.883
119 | A5C G51A U78C G113U U133G | -6.24
120 | A5C A50C U96G | -1.64

Row | Variant | polymerase ribozyme fitness (log ratio)
121 | C4G U87A | -2.92
122 | A5G U9G C12A U78C G93A | -0.124
123 | C4U C31U G61U C98G C101A C114U | -6.59
124 | C4G U9G C13A C82U A111G | -2.04
125 | C4U C101G | -2.06
126 | C4U U129A | -2.07
127 | A5U A84G U96C G113U | -4.28
128 | C4G C40G C115U | -3.42
129 | A5U G47A C124U U126A | 0.649
130 | A5U U9C G45A | -0.0819
131 | A5U A95C G120C | 0.108
132 | A5G A118U C123G | 2.09
133 | C4G A111U | -3.42
134 | A5G G93A | -1.17
135 | A5U G44A A74U C82G U87G | -4.13
136 | A5C A46U | -1.95
137 | C4G C56G C64U | -3.26
138 | A5U C94U | -1.16
139 | A5C G44U G77U | -2.37
140 | C4G C73A A91U | -3.63
141 | C4G A41U A46C U87G A91U C115A G135U | -4.36
142 | A5G C11A U81C | -1.86
143 | A5U G63C | -0.837
144 | A5C C28A G47U C53G G93U | -7.47

Row | Variant | polymerase ribozyme fitness (log ratio)
145 | C4G G44A G60C A111G | -3.78
146 | A5U G71C C102G C114G C115G | -6.55
147 | A5U U9G G47A G52U | -1.96
148 | A5C C73G A84U | -2.25
149 | A5C U7A C8A C80U | -1.09
150 | C4U G120C | -0.0314
151 | C4U A26G A41U C72U U87G A111C | -4
152 | C4G C101A | -2.61
153 | C4U A41C | -1.67
154 | A5U C11G C94U C104A G110C | -5.6
155 | A5G U9C U32C C40G G60U | -1.01
156 | A5U G47A | -1.21
157 | C4U G69C | -2.05
158 | A5G U109G | -4.99
159 | A5U G61C C88A | -2.27
160 | A5C A37U G69A C123A G128A | -4.31
161 | A5U C64U C79U G110A A111G U130C | -0.201
162 | C4G G45C C70A | -4.27
163 | A5C C13U C88A C123U | 1.09
164 | A5U U59A U92A U129G | -3.92
165 | A5G A27U A46G | -2.16
166 | A5U C64U | -0.49
167 | C4U U38G | -1.16
